Laboratory results published in patent US20110064751A1 (Hoffmann-La Roche, published 2011).
Changes are numbered by the printed parent chain.

Assays:
[1] = target: T1, Extra Domain B of fibronectin (EDB) (UniProt P02751 1266-1356); test: SPR (BIACORE), EDB immobilized on the chip, construct as analyte
T1 construct: domain: Extra Domain B; construct not described; also called fibronectin Ectodomain-B

[2] = target: T1, Extra Domain B of fibronectin (EDB); test: BIACORE SPR, EDB immobilized on the chip, analyte at 1.56, 3.125 and 6.25 nM
[3] = target: T2, Human TNC-A2 + avi-tag + his6-tag (human, biotinylated in vivo at the avi-tag); test: SPR (ProteOn XPR36), purified Fab, monovalent binding
T2 construct: also called hu TNC A2; A2 domain of human tenascin
T2 chain: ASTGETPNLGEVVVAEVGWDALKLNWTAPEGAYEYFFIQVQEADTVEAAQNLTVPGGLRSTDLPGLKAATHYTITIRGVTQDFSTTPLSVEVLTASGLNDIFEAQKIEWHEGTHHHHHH
Experimental: Selections were carried out against E. coli expressed human TNC A2 which was cloned upstream an avi-tag and 6×his-tag (see SEQ ID NO: 57 of Table 5). The antigen was biotinylated in vivo upon expression. Selections have been carried out in solution as described for the primary TNC A2 selections using decreasing concentrations of human TNC A2 ranging from 100 to 2 nM. After identification of affinity-matured clones by ELISA, secondary screenings were carried out using a ProteOn XPR36 biosensor (Biorad) and kinetic rate constants and affinities were determined analyzing affinity-purified Fab preparations on the same instrument.

[4] = target: T3, Human FAP ectodomain + poly-lys-tag + his6-tag (human, UniProt Q12884 27-760); test: first affinity maturation campaign: phage selections, ELISA and BIACORE kinetic screening
T3 construct: also called hu FAP

[5] = target: T4, Murine FAP ectodomain + poly-lys-tag + his6-tag (murine, UniProt P97321 27-761); test: as above
T4 construct: also called mu FAP

[6] = target: T5, DPPIV expressed on HEK293 or CHO cells (Homo sapiens (Human), UniProt P27487 1-766); test: binding to DPPIV-expressing HEK293 or CHO cells
T5 construct: also called close homologue of FAP

[7] = target: T3, Human FAP ectodomain + poly-lys-tag + …; test: SPR (ProteOn XPR36), purified Fab, monovalent binding
[8] = target: T4, Murine FAP ectodomain + poly-lys-tag + …; test: as above
Cynomolgus FAP = target: T6, Cynomolgus FAP (Cynomolgus); test: as above
T6 construct: construct not described; also called cyno FAP

[9] = target: T7, A1 domain of tenascin (TNC-A1), immobilized domain of Example 1 (UniProt P24821 1072-1162, limits assumed); test: SPR (BIACORE), TNC-A1 domain immobilized on the chip
T7 construct: domain: A1; also called TNC-A1 domain
T7 sequence (looked up): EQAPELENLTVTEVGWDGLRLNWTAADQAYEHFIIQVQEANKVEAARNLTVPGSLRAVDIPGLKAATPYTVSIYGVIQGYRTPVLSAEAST

T1 sequence (P02751 1266-1356 limits assumed): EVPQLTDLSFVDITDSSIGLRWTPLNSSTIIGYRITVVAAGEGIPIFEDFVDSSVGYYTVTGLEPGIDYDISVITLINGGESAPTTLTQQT

B1: L19 IgG (L19 antibody in the human IgG1 format) (antibody, V domains shown)
VH: EVQLLESGGGLVQPGGSLRLSCAASGFTFSSFSMSWVRQAPGKGLEWVSSISGSSGTTYYADSVKGRFTISRDNSKNTLYLQMNSLRAEDTAVYYCAKPFPYFDYWGQGTLVTVSS
VL: EIVLTQSPGTLSLSPGERATLSCRASQSVSSSYLAWYQQKPGQAPRLLIYYASSRATGIPDRFSGSGSGTDFTLTISRLEPEDFAVYYCQQTGRIPPTFGQGTKVEIK
notes: Human IgG1 format; also called the IgG
Kd [1]: 0.26 nM
Kd [2]: 0.263 nM
koff [2]: 0.000637 s⁻¹
kon [2]: 2.42e+06 M⁻¹ s⁻¹

B2: 2B10_6A12 Fab (Fab, V domains shown)
VH: QVQLVQSGAEVKKPGSSVKVSCKASGGTFSSYAISWVRQAPGQGLEWMGVIIPILGTANYAQKFQGRVTITADKSTSTAYMELSSLRSEDTAVYYCARLYGYAYYGAFDYWGQGTTVTVSS
VL: DIQMTQSPSSLSASVGDRVTITCRASQGIRNDLGWYQQKPGKAPKRLIYAASSLQSGVPSRFSGSGSGTEFTLTISSLQPEDFATYYCLQNGLQPATFGQGTKVEIK
notes: also called clone 2B10-6A12
Kd [3]: 0.29 nM

B3: 2B10_6H10 Fab (Fab, V domains shown)
VH: B2 VH with V50G, L55F
VL: B2 VL with D32V, Y49Q, S52T, S65G
notes: also called clone 2B10-6H10
Kd [3]: 0.81 nM

B4: 2B10_C3A6 Fab (Fab, V domains shown)
VH: B2 VH with V50G, L55F
VL: B2 VL with D32V, A50D, A51S, S65G
notes: also called clone 2B10_C3A6
Kd [3]: 0.497 nM

B5: 2B10_C3B6 Fab (Fab, V domains shown)
VH: B2 VH with V50A, T57I
VL: B2 VL
notes: also called clone 2B10_C3B6
Kd [3]: 0.191 nM

B6: 2B10_O1F7 Fab (Fab, V domains shown)
VH: B2 VH with V50G, L55F
VL: B2 VL with D32V, A50D, S65G
notes: also called clone 2B10_O1F7
Kd [3]: 0.056 nM

B7: 2B10_O7D8 Fab (Fab, V domains shown)
VH: B2 VH with V50G, L55F
VL: B2 VL with G28S, D32V, A50D, A51V, S65G
notes: also called clone 2B10_O7D8
Kd [3]: 0.147 nM

B8: 3F2 Fab (Fab, V domains shown)
VH: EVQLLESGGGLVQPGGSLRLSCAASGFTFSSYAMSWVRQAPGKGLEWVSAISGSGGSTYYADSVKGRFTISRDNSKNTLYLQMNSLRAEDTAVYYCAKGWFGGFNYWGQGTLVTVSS
VL: B1 VL with S14Y, S30T, Y50N, Y51V, A52G, S54R, T92G, G93I, R94M, I95L
notes: Fab fragment; also called clone 3F2
binding result [4]: binds
binding result [5]: binds

B9: 4B9 Fab (Fab, V domains shown)
VH: EVQLLESGGGLVQPGGSLRLSCAASGFTFSSYAMSWVRQAPGKGLEWVSAIIGSGASTYYADSVKGRFTISRDNSKNTLYLQMNSLRAEDTAVYYCAKGWFGGFNYWGQGTLVTVSS
VL: B1 VL with S30T, Y50N, Y51V, A52G, S54R, T92G, G93I, R94M, I95L
notes: also called clone 4B9
binding result [6]: no binding
Kd [7]: 0.157 nM
Kd [8]: 3.3 nM

B10: 5B8 Fab (Fab, V domains shown)
VH: B9 VH with I52W, S54G, A56R
VL: B1 VL with S30T, Y50N, Y51V, A52G, S54R, T92G, G93I, R94M, I95L
notes: also called clone 5B8
binding result [6]: no binding
Kd [7]: 0.69 nM
Kd [8]: 3.2 nM

B11: 5F1 Fab (Fab, V domains shown)
VH: B9 VH with G53S
VL: B1 VL with S30T, Y50N, Y51V, A52G, S54R, T92G, G93I, R94M, I95L
notes: also called clone 5F1
binding result [6]: no binding
Kd [7]: 0.243 nM
Kd [8]: 4.1 nM

B12: 14B3 Fab (Fab, V domains shown)
VH: B9 VH with I52L, G53A, S57I
VL: B1 VL with S30T, Y50N, Y51V, A52G, S54R, T92G, G93I, R94M, I95L
notes: also called clone 14B3
binding result [6]: no binding
Kd [7]: 0.377 nM
Kd [8]: 3.8 nM

B13: 16F1 Fab (Fab, V domains shown)
VH: B9 VH with A50G, A56G, S57I
VL: B1 VL with S30T, Y50N, Y51V, A52G, S54R, T92G, G93I, R94M, I95L
notes: also called clone 16F1
binding result [6]: no binding
Kd [7]: 0.193 nM
Kd [8]: 3.4 nM

B14: 16F8 Fab (Fab, V domains shown)
VH: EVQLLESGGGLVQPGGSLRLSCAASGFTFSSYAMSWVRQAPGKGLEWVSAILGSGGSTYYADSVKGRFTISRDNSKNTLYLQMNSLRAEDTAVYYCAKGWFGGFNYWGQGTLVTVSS
VL: B1 VL with S30T, Y50N, Y51V, A52G, S54R, T92G, G93I, R94M, I95L
notes: also called clone 16F8
binding result [6]: no binding
Kd [7]: 0.301 nM
Kd [8]: 3.8 nM

B15: 19G1 Fab (Fab, V domains shown)
VH: B9 VH with G53S, A56G, S57L
VL: B1 VL with S30T, Y50N, Y51V, A52G, S54R, T92G, G93I, R94M, I95L
notes: also called clone 19G1
binding result [6]: no binding
Kd [7]: 0.076 nM
Kd [8]: 2.6 nM

B16: 20G8 Fab (Fab, V domains shown)
VH: B9 VH with A56S, S57R
VL: B1 VL with S30T, Y50N, Y51V, A52G, S54R, T92G, G93I, R94M, I95L
notes: also called clone 20G8
binding result [6]: no binding
Kd [7]: 0.069 nM
Kd [8]: 2.8 nM

B17: 22A3 Fab (Fab, V domains shown)
VH: B9 VH with A56S, S57I
VL: B1 VL with S30T, Y50N, Y51V, A52G, S54R, T92G, G93I, R94M, I95L
notes: also called clone 22A3
binding result [6]: no binding
Kd [7]: 0.034 nM
Kd [8]: 0.655 nM
Kd (Cynomolgus FAP): 0.522 nM

B18: O2D7 Fab (Fab, V domains shown)
VH: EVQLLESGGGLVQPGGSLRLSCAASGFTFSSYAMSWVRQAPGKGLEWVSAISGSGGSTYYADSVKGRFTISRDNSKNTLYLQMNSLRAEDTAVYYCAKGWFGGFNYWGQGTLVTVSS
VL: B1 VL with S30T, Y50N, Y51V, A52G, S54R, I59T, T92A, G93I, R94M, I95L
notes: also called clone O2D7
binding result [6]: no binding
Kd [7]: 0.619 nM
Kd [8]: 8.3 nM

B19: O3C9 Fab (Fab, V domains shown)
VH: B9 VH with Y32F, A40S, A56S, S57N
VL: B1 VL with S30T, Y50N, Y51V, A52G, S54R, T92G, G93I, R94M, I95L
notes: also called clone O3C9
binding result [6]: no binding
Kd [7]: 0.16 nM
Kd [8]: 3.7 nM

B20: 4G8 Fab (Fab, V domains shown)
VH: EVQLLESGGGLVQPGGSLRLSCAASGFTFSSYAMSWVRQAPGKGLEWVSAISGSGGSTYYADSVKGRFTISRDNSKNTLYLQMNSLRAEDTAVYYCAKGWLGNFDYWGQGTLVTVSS
VL: B1 VL with S31R, Y50I, Y51G, S54T, T92G, G93Q, R94V
notes: Fab fragment; also called clone 4G8
binding result [4]: binds
binding result [5]: binds

B21: 4B3 Fab (Fab, V domains shown)
VH: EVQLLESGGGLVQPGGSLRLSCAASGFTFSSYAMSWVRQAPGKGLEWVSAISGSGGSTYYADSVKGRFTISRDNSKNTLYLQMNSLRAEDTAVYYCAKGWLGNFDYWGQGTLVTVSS
VL: B1 VL with S32N, Y51G, S53Y, S54I, T92G, G93Q, R94V
notes: Fab fragment; also called clone 4B3
binding result [4]: binds
binding result [5]: binds

B22: F16 IgG (antibody, V domains shown)
VH: B1 VH with S31R, F32Y, S33G, S50A, S55G, T57S, P99A, F100H, P101N, Y102A
VL: SSELTQDPAVSVALGQTVRITCQGDSLRSYYASWYQQKPGQAPVLVIYGKNNRPSGIPDRFSGSSSGNTASLTITGAQAEDEADYYCNSSVYTMPPVVFGGGTKLTVL
notes: The light chain entry is named generally (F16, light chain); also called the IgG molecule; copies: 2 + 2
Kd [9]: 2.6 nM
increase of affinity attributed to bivalency (IgG against Fab) [9]: 20 fold

B23: F16 Fab fragment (Fab, V domains shown)
VH: B1 VH with S31R, F32Y, S33G, S50A, S55G, T57S, P99A, F100H, P101N, Y102A
VL: SSELTQDPAVSVALGQTVRITCQGDSLRSYYASWYQQKPGQAPVLVIYGKNNRPSGIPDRFSGSSSGNTASLTITGAQAEDEADYYCNSSVYTMPPVVFGGGTKLTVLG
notes: also called monovalent Fab fragment of F16
Kd [9]: 50 nM

B24: 28H1 Fab (Fab, V domains shown)
VH: EVQLLESGGGLVQPGGSLRLSCAASGFTFSSHAMSWVRQAPGKGLEWVSAIWASGEQYYADSVKGRFTISRDNSKNTLYLQMNSLRAEDTAVYYCAKGWLGNFDYWGQGTLVTVSS
VL: B1 VL with S31R, Y50I, Y51G, S54T, T92G, G93Q, R94V
notes: also called clone 28H1
binding result [6]: no binding
Kd [7]: 0.2 nM
Kd [8]: 0.009 nM

B25: 29B11 Fab (Fab, V domains shown)
VH: B9 VH with A56G, S57I
VL: B1 VL with S30T, Y50N, Y51V, A52G, S54R, T92G, G93I, R94M, I95L
notes: also called clone 29B11
binding result [6]: no binding
Kd [7]: 0.035 nM
Kd [8]: 0.436 nM
Kd (Cynomolgus FAP): 0.023 nM

B26: 23C10 Fab (Fab, V domains shown)
VH: B9 VH with Y32S, I52S, G53T, S54N, A56N, S57Y, F101L, G103N, N105D
VL: B1 VL with S31R, Y50I, Y51G, S54T, T92G, G93Q, R94V
notes: also called clone 23C10
binding result [6]: no binding
Kd [7]: 1.6 nM
Kd [8]: 0.125 nM
Kd (Cynomolgus FAP): 0.99 nM
